Reference: patent US7361348B2, “Immunogenic glycopeptides, screening, preparation and uses” (priority 2000, dated 2008)
“Also recorded” adds a separate entry of the source. Like-named read-outs stand apart in the source and are kept apart here.

Columns and labels:
[1] = system: guinea pigs immunized with live BCG; type: in vivo, guinea pig; details: for loss of antigenic activity during digestion with α-mannosidase: 0.2 μg intradermally
[2] = system: guinea pigs immunized with heat-inactivated BCG; type: in vivo, guinea pig
T lymphocytes = assay: in vitro lymphocyte proliferation assay; type: cell-based
Text: The conditions of the assay are those described in Horn et al., mentioned above.

[3] = system: guinea pigs immunized with the plasmids pAG831 or pAG832; type: in vivo, guinea pig; details: antigen 0.2 μg in 100 μl
[4] = system: guinea pigs immunized with the Apa fusion peptide; type: in vivo, guinea pig
[5] = system: specific CD4+ T lymphocytes; details: cited from earlier work
[6] = guinea pigs immunized with live BCG

## Lip: Mannosylated glycopeptide purified from M. tuberculosis culture, derived from the protein encoded by the Rv1796 gene (SEQ ID NO:3) (TIPTTETPPPPQTVTLSPVPPQTVTVIPAPPPEEG; not fully specified; mannosylated; MOD_RES (4)..(4) glycosidic bond to a di- or a tri-saccharide; listed as Mycobacterium tuberculosis)
[1]; 0.02 μg in 0.1 ml, live BCG
  delayed-type hypersensitivity of the peptide treated with subtilisin: abolishes the antigenic activity; also recorded: negative
  delayed-type hypersensitivity of the peptide treated with α-mannosidase: negative
[1]; after α-mannosidase 24 h at 37° C., live BCG
  antigenic activity after deglycosylation: less than 30 000 TU/mg
[1]; at an equivalent amount of proteins, Lip 0.02 μg vs PPD 0.25 μg in 0.1 ml
  activity relative to the standard purified proteins from M. tuberculosis (PPD): at least 10 times
[1]; [6]
  antigenic activity: 1 000 000 TU/mg
  delayed-type hypersensitivity reaction (in words): very active
[1]; α-mannosidase 24 h at 37° C.
  loss of the antigenic activity by action of α-mannosidase: more than 95%
[2]
  delayed-type hypersensitivity reaction (in words): relatively inactive
T lymphocytes; T lymphocytes treated with an antibody directed against CD4 molecules
  T-lymphocyte proliferation: marginal
T lymphocytes; glycopeptide treated with α-mannosidase
  T-lymphocyte proliferation: marginal
T lymphocytes; native Lip
  T-lymphocyte proliferation: dependent on the peptide concentration

B1: Native Apa: Mannosylated protein secreted by M. tuberculosis, product of the Rv 1860 gene, purified from culture supernatant (protein, UniProt P9WIR7 40-325, looked up)
Alanine and proline-rich …: DPEPAPPVPTTAASPPSTAAAPPAPATPVAPPPPAAANTPNAQPGDPNAAPPPADPNAPPPPVIAPNAPQPVRIDNPVGGFSFALPAGWVESDAAHFDYGSALLSKTTGDPPFPGQPPPVANDTRIVLGRLDQKLYASAEATDSKAAARLGSDMGEFYMPYPGTRINQETVSLDANGVSGSASYYEVKFSDPSKPNGQIWTGVIGSPAANAPDAGPPQRWFVVWLGTANNPVDKGAAKALAESIRPLVAPPPAPAPAPAEPAPAPAPAGEVAPTPTTPTPQRTLPA
modifications: native mannosylated
notes: Mannosylated protein secreted by M. tuberculosis, product of the Rv 1860 gene, purified from culture supernatant
[1]; digestion 1 h, tuberculin titre vs PPD standard
  loss of antigenic activity during digestion with α-mannosidase: 66%
[1]; digestion 4 h (3 to 6 mannose residues remain)
  loss of antigenic activity during digestion with α-mannosidase: 86%
[1]; [6]
  delayed-type hypersensitivity reaction (in words): show a delayed-type hypersensitivity reaction only in response to the native Apa; also recorded: considerable; also recorded: only the glycosylated native Apa is antigenic
[3]
  delayed-type hypersensitivity / CD4+ T lymphocyte response (in words): equivalent
[4]
  delayed hypersensitivity sensitization (in words): identical
[5]; α-mannosidase, TFMS or expression in E. coli
  loss of antigenicity on demannosylation: 100 fold

B2: Deglycosylated Apa: deglycosylated Apa protein prepared as described in example 1 (α-mannosidase digestion) (protein, UniProt P9WIR7 40-325, looked up)
Alanine and proline-rich …: B1 Alanine and proline-rich …
modifications: deglycosylated
[1]; [6]
  delayed-type hypersensitivity reaction (in words): very weak or absent
[3]
  delayed-type hypersensitivity / CD4+ T lymphocyte response (in words): of the same strength as the responses observed with the glycosylated native antigen
[4]
  delayed hypersensitivity sensitization (in words): identical

B3: E. Coli recombinant Apa: deglycosylated recombinant Apa produced in E. coli (protein, UniProt P9WIR7 40-325, looked up)
Alanine and proline-rich …: B1 Alanine and proline-rich …
modifications: non-glycosylated, produced in E. coli
[1]; guinea pigs immunized with live BCG, listed as molecules produced in E. coli
  delayed-type hypersensitivity reaction (in words): very weak or absent
[1]; guinea pigs immunized with live BCG, listed as non-glycosylated recombinant Apa produced in E. coli
  delayed-type hypersensitivity reaction (in words): no reaction or develop a greatly decreased reaction
[3]
  delayed-type hypersensitivity / CD4+ T lymphocyte response (in words): of the same strength as the responses observed with the glycosylated native antigen
[3]; listed as E. coli rApa
  delayed-type hypersensitivity / CD4+ T lymphocyte response (in words): equivalent

B4: glycosylated Apa produced by Mycobacterium smegmatis: Glycosylated Apa produced by M. smegmatis, overall mannose composition slightly different from M. tuberculosis Apa (protein, UniProt P9WIR7 40-325, looked up)
Alanine and proline-rich …: B1 Alanine and proline-rich …
modifications: glycosylated, produced in M. smegmatis
[5]
  decrease of antigenic activity versus Apa produced by M. tuberculosis: approximately 10 fold
